Read-outs that look alike come from different tables or passages of the source.
Tests used:
recombinant human IL-13 [1] = target: T1, recombinant human IL-13 (human, UniProt P35225 35-146, limits assumed); assay: cell-based or functional assay
recombinant human IL-13 [2] = target: T1, recombinant human IL-13; assay: SPR Biacore 3000, antibody captured, cytokine in solution
From the text: (§1) Surface plasmon resonance technology on a Biacore 3000 (GE Healthcare) was used for detailed kinetic characterisation of purified anibodics. A capture assay using a species specific antibody (e.g. human-Fc specific MAB 1302, Chemicon) for capture and orientation of the investigated antibodies was used. The capture antibody was immobilized via primary amine groups (10000 RU) on a research grade CM5 chip (GE Life Sciences) using standard procedures. The analysed antibody was captured with an adjusted RU value that would result in maximal analyte binding of 30 RU at a flow rate of 10 μl/min. Binding kinetics were measured against recombinant human IL-4 and IL-13 over a concentration range between 0 to 50 nM in HBS EP (10 mM HEPES pH 7.4, 150 mM NaCl, 3 mM EDTA, 0.005% Surfactant P20) at a flow rate of 30 μl/min. Chip surfaces were regenerated with 10 mM glycine pH2.5. Kinetic parameters were analysed and calculated in the BIAevaluation program package using a flow cell without captured antibody as reference. To investigate additive binding of both antigens, a wizard-driven co-inject method has been applied in which one antigen was injected immediately followed by the antigen mix of IL-13/IL-4.

recombinant human IL-4 [3] = target: T2, recombinant human IL-4 (human, UniProt P05112 25-153); assay: cell-based or functional assay
T2 sequence (looked up): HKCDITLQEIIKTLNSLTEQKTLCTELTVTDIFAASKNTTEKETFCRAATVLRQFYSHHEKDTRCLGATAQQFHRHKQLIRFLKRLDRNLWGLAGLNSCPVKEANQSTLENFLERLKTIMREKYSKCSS

recombinant human IL-4 [4] = target: T2, recombinant human IL-4; assay: SPR Biacore 3000, antibody captured, cytokine in solution
From the text: as §1
Binding and neutralization activity assays were performed as described in the previous Examples.

[5] = target: human IL-13 R112Q variant (human) (UniProt P35225); assay: as above
recombinant human IL-4 [6] = target: T2, recombinant human IL-4; assay: cell-based or functional assay; remark: listed apart in the source
recombinant human IL-4 [7] = target: T2, recombinant human IL-4; assay: SPR Biacore 3000, antibody captured, cytokine in solution; remark: listed apart in the source
From the text: as §1

human IL-13 R112Q variant (human), sequence (P35225 33-146, stated change not applied): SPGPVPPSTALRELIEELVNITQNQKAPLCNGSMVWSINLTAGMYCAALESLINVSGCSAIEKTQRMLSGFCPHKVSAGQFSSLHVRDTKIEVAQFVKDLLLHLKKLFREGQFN
T1 sequence (P35225 35-146 limits assumed): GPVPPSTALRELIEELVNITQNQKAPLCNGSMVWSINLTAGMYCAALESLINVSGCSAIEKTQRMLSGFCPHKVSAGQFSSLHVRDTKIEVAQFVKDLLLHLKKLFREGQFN

## chimeric anti-IL-13 clone B-B13 monoclonal antibody
Recombinant human IL-13 [1]
  IC50, inhibition of IL-13 induced TF-1 cell proliferation: 7.4 nM
Recombinant human IL-13 [2]
  Kd: 0.261 nM
  koff: 0.000461 s⁻¹
  kon: 1.76e+06 M⁻¹ s⁻¹

## mouse anti-IL-13 monoclonal antibody clone B-B13
Recombinant human IL-13 [2]
  Kd: 0.563 nM
  koff: 0.000373 s⁻¹
  kon: 864000 M⁻¹ s⁻¹

B1: huTBTI3_1_1 (bispecific antibody, IgG4)
VH: EVQLKESGPGLVAPGGSLSITCTVSGFSLTDSSINWVRQPPGKGLEWLGMIWGDGRIDYADALKSRLSISKDSSKSQVFLEMTSLRTDDTATYYCARDGYFPYAMDFWGQGTSVTVSSGGGGSGGGGSQVQLQQSGPELVKPGASVKISCKASGYSFTSYWIHWIKQRPGQGLEWIGMIDASDGETRLNQRFQGRATLTVDESTSTAYMQLRSPTSEDSAVYYCTRLKEYGNYDSFYFDVWGAGTLVTVSS
VL: DIVLTQSPASLAVSLGQRATISCRASESVDSYGQSYMHWYQQKAGQPPKLLIYLASNLESGVPARFSGSGSRTDFTLTIDPVQAEDAATYYCQQNAEDSRTFGGGTKLEIKGGGGSGGGGSDIQMTQSPASLSVSVGDTITLTCHASQNIDVWLSWFQQKPGNIPKLLIYKASNLHTGVPSRFSGSGSGTGFTLTISSLQPEDIATYYCQQAHSYPFTFGGGTKLEIK
notes: Dual variable domain IgG4: B-B13 VL3 × VH2 outer, 8D4-8 VL1 × VH2 inner, (G4S)2 linkers; heterotetramer of two heavy and two light chains; copies: 2 + 2
Recombinant human IL-4 [3]
  IC50 (nM) in IL-4 assay (TF-1 cell proliferation): 1.7 nM
Recombinant human IL-4 [4]
  Kd: 0.148 nM
  koff: 0.000378 s⁻¹
  kon: 2.55e+06 M⁻¹ s⁻¹
[5]
  Kd: 0.121 nM
  koff: 0.000118 s⁻¹
  kon: 974000 M⁻¹ s⁻¹

B2: huTBTI3_2_1 (bispecific antibody, IgG4)
VH: EVQLKESGPGLVAPGGSLSITCTVSGFSLTDSSINWVRQPPGKGLEWLGMIWGDGRIDYADALKSRLSISKDSSKSQVFLEMTSLRTDDTATYYCARDGYFPYAMDFWGQGTSVTVSSGGGGSGGGGSQVQLQQSGPELVKPGASVKISCKASGYSFTSYWIHWIKQRPGQGLEWIGMIDPSDGETRLNQRFQGRATLTVDESTSTAYMQLRSPTSEDSAVYYCTRLKEYGNYDSFYFDVWGAGTLVTVSS
VL: DIVLTQSPASLAVSLGQRATISCRASESVDSYGQSYMHWYQQKAGQPPKLLIYLASNLESGVPARFSGSGSRTDFTLTIDPVQAEDAATYYCQQNAEDSRTFGGGTKLEIKGGGGSGGGGSDIQMTQSPASLSVSVGDTITLTCHASQNIDVWLSWFQQKPGNIPKLLIYKASNLHTGVPSRFSGSGSGTGFTLTISSLQPEDIATYYCQQAHSYPFTFGGGTKLEIK
notes: Dual variable domain IgG4: B-B13 VL3 × VH2 outer, 8D4-8 VL1 × VH1 inner, (G4S)2 linkers; heterotetramer of two heavy and two light chains; copies: 2 + 2
Recombinant human IL-4 [3]
  IC50 (nM) in IL-4 assay (TF-1 cell proliferation): 0.32 nM
Recombinant human IL-4 [4]
  Kd: 0.0347 nM
  koff: 0.000139 s⁻¹
  kon: 4e+06 M⁻¹ s⁻¹
[5]
  Kd: 0.211 nM
  koff: 0.0002 s⁻¹
  kon: 948000 M⁻¹ s⁻¹

B3: huTBTI3_1_2 (bispecific antibody, IgG4)
VH: EVQLKESGPGLVAPGGSLSITCTVSGFSLTDSSINWVRQPPGKGLEWLGMIWGDGRIDYADALKSRLSISKDSSKSQVFLEMTSLRTDDTATYYCARDGYFPYAMDFWGQGTSVTVSSGGGGSGGGGSQVQLQQSGPELVKPGASVKISCKASGYSFTSYWIHWIKQRPGQGLEWIGMIDASDGETRLNQRFQGRATLTVDESTSTAYMQLRSPTSEDSAVYYCTRLKEYGNYDSFYFDVWGAGTLVTVSS
VL: DIVLTQSPASLAVSLGQRATISCRASESVDSYGNSYMHWYQQKAGQPPKLLIYLASNLESGVPARFSGSGSRTDFTLTIDPVQAEDAATYYCQQNNEDSRTFGGGTKLEIKGGGGSGGGGSDIQMTQSPASLSVSVGDTITLTCHASQNIDVWLSWFQQKPGNIPKLLIYKASNLHTGVPSRFSGSGSGTGFTLTISSLQPEDIATYYCQQAHSYPFTFGGGTKLEIK
notes: Dual variable domain IgG4: B-B13 VL2 × VH2 outer, 8D4-8 VL1 × VH2 inner, (G4S)2 linkers; heterotetramer of two heavy and two light chains; copies: 2 + 2
Recombinant human IL-4 [4]
  Kd: 0.138 nM
  koff: 0.000308 s⁻¹
  kon: 2.23e+06 M⁻¹ s⁻¹

B4: huTBTI3_2_2 (bispecific antibody, IgG4)
VH: EVQLKESGPGLVAPGGSLSITCTVSGFSLTDSSINWVRQPPGKGLEWLGMIWGDGRIDYADALKSRLSISKDSSKSQVFLEMTSLRTDDTATYYCARDGYFPYAMDFWGQGTSVTVSSGGGGSGGGGSQVQLQQSGPELVKPGASVKISCKASGYSFTSYWIHWIKQRPGQGLEWIGMIDPSDGETRLNQRFQGRATLTVDESTSTAYMQLRSPTSEDSAVYYCTRLKEYGNYDSFYFDVWGAGTLVTVSS
VL: DIVLTQSPASLAVSLGQRATISCRASESVDSYGNSYMHWYQQKAGQPPKLLIYLASNLESGVPARFSGSGSRTDFTLTIDPVQAEDAATYYCQQNNEDSRTFGGGTKLEIKGGGGSGGGGSDIQMTQSPASLSVSVGDTITLTCHASQNIDVWLSWFQQKPGNIPKLLIYKASNLHTGVPSRFSGSGSGTGFTLTISSLQPEDIATYYCQQAHSYPFTFGGGTKLEIK
notes: Dual variable domain IgG4: B-B13 VL2 × VH2 outer, 8D4-8 VL1 × VH1 inner, (G4S)2 linkers; heterotetramer of two heavy and two light chains; copies: 2 + 2
Recombinant human IL-4 [4]
  Kd: 0.0332 nM
  koff: 0.000132 s⁻¹
  kon: 3.96e+06 M⁻¹ s⁻¹

B5: Hu8D4-8 VL1 × VH2 (antibody, V domains shown)
VH: QVQLQQSGPELVKPGASVKISCKASGYSFTSYWIHWIKQRPGQGLEWIGMIDASDGETRLNQRFQGRATLTVDESTSTAYMQLRSPTSEDSAVYYCTRLKEYGNYDSFYFDVWGAGTLVTVSS
VL: DIQMTQSPASLSVSVGDTITLTCHASQNIDVWLSWFQQKPGNIPKLLIYKASNLHTGVPSRFSGSGSGTGFTLTISSLQPEDIATYYCQQAHSYPFTFGGGTKLEIKR
notes: Expressed as a whole antibody, purified on Protein A; also called humanized 8D4-8 VL1xVH2
Recombinant human IL-4 [6]
  IC50, inhibition of IL-4 induced TF-1 cell proliferation: 0.135 nM
Recombinant human IL-4 [7]
  Kd: 0.0139 nM
  koff: 0.000348 s⁻¹
  kon: 2.57e+07 M⁻¹ s⁻¹

Source: patent US20130236462A1 (Sanofi, published 2013)
